Results: article PMC3539201

Columns and labels:
[1] = biological target: YFP-human-nesprin-3 (human) (UniProt Q6ZMZ3); test: co-IP
[2] = biological target: torsinA (endogenous, mouse fibroblasts) (mouse (endogenous in MFs)) (UniProt Q9ER39); test: co-IP
Sequence of torsinA (endogenous, mouse fibroblasts) (mouse (endogenous in MFs)) (Q9ER39 21-333): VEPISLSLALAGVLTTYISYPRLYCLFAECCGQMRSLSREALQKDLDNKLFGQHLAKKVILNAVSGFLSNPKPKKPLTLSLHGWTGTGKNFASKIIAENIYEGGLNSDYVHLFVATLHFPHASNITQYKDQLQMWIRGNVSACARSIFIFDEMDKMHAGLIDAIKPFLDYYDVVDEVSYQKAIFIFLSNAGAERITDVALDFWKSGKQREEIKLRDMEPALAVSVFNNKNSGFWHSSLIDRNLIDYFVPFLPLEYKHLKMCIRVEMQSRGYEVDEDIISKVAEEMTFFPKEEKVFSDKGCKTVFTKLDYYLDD

Sequence of YFP-human-nesprin-3 (human) (Q6ZMZ3 whole entry): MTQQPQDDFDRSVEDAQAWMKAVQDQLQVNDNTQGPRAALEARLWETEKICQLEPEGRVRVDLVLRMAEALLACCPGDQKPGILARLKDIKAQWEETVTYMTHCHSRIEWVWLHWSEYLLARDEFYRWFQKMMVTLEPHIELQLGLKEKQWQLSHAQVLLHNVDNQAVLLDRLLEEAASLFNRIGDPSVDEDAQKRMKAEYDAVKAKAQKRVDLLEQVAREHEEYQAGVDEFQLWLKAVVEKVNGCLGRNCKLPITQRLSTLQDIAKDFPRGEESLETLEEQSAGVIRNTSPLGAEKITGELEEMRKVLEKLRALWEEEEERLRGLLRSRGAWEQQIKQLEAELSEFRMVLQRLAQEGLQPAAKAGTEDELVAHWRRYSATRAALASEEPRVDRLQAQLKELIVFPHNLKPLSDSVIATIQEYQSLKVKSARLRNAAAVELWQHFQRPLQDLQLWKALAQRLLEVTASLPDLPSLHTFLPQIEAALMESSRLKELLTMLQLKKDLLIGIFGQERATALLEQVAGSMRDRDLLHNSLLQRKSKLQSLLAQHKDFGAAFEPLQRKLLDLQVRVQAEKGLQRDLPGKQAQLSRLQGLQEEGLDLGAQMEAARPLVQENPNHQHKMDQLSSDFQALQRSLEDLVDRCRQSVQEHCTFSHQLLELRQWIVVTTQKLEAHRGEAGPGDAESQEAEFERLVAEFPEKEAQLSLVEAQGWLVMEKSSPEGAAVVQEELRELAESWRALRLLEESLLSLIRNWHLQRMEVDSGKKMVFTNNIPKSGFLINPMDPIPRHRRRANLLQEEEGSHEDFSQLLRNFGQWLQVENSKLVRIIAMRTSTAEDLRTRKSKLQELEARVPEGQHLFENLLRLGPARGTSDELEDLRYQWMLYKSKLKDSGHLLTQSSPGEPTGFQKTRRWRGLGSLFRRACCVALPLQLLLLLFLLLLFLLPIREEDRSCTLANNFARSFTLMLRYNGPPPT
Sequence of torsinAΔE (human, expressed in 293T cells) (O14656 21-332, stated change not applied): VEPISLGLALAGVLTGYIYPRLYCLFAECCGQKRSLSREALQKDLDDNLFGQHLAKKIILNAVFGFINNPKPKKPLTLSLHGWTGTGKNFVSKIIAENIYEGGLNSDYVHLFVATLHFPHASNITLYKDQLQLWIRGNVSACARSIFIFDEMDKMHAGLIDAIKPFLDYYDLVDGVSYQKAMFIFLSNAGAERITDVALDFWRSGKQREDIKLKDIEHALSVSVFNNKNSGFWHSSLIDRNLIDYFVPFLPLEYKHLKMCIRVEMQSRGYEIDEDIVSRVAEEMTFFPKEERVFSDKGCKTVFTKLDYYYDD

Row | Substance | percentage immunoprecipitated with YFP-nesprin-3 in the presence of ATP [1] [%] | percentage immunoprecipitated from lysates [2] [%]
1 | torsinAΔE (human, expressed in 293T cells) (from UniProt O14656 21-332) (natural protein) | 25 | 
2 | plectin (endogenous, mouse fibroblasts), Q9QXS1 1-4691 |  | 7
